Test results: the DeepSol protein solubility set

Test: soluble on expression in E. coli; label from the status in PepcDB or PDB records

| Sequence | soluble on expression in E. coli |
| --- | --- |
| MPHIAHRKNGTYDQSGFNCSLFCSFVQKQGCRTMIQLTTPVENPVIRERLISYANKLFFVGSCFSLEVGSYMRQAGFRTEINPFGIMYNPLSIAGCIGRLLDPVPYQAEELFEYDGLFHSFDHHGAFSHAKKEETLQHLNDSLHVGHEALLRSDRLFFTWGTAFVYNYVSANKVVANCHKLPERLFRRQMVGIDDLLAVWIPLIERLLSSSPDRRIILTVSPVRHLRDGAVGNQQSKATLVLFCKALTGRFPEHLYYFPAYEIMMDELRDYRYYADDMTHPSSLAVSIIRERFADIFVEKDHREAMDACLKLRRRMAHRPLHPDSPDAMLFEAQTQTLVSALLRKYPDLVLDDIAGEMES | not soluble |
| MGLAASEALQGSEQEINSAFSNQITPVISGDYIVWQDERDGNWDIYMYDMSAGRTETSLFNGPKDEIEPAISGSRVVLADNRRGNYDIYMYDISTKKEVQVTSDKSEQKEPAISEDIIVWTDRRNQNTDIYMYDLTTKEETRITDDKADQSQPAVWGNIIVWKDTRNGNEDIYMYDISAGKESPVVMDSAAQTNPVIEGDYIVWEDRRAGNLDIYMYEISTGKEKPVCTDPSPQKTPAISDGRIVWADGRIKGTNIFIYDIATGQEKTVSTASEYESNPSIDGNRIVWQDKRKGAMDIFMFTEDASETESTAGEKTEAETGSKAPLGIYPVSAGVIAAYLMINSGKKGKRKTLEHHHHHH | not soluble |
| MACCLSEEAREQKRINQEIEKQLQRDKRNARRELKLLLLGTGESGKSTFIKQMRIIHGQGYSEEDKRAHIRLVYQNVFMAIQSMIRAMDTLDIKFGNESEELQEKAAVVREVDFESVTSFEEPYVSYIKELWEDSGIQECYDRRREYQLTDSAKYYLSDLRRLAVPDYLPTEQDILRVRVPTTGIIEYPFDLEQIIFRMVDVGGQRSERRKWIHCFENVTSIMFLVALSEYDQVLVECDNENRMEESKALFRTIITYPWFTNSSVILFLNKKDLLEEKILYSHLADYFPEYDGPPRDPIAAREFILKMFVDLNPDADKIIYSHFTCATDTENIRFVFAAVKDTILQHNLKEYNLV | not soluble |
| MGKRSGASYRSRRPKLACADWDKRMMQTQPFRLPRFTPFGVIEKGVELATGLSQLERYYQQRPTTRDGFEFMRYTLEALNVHYQVDRGRVEQIPAQGPVVIVANHPLGAIEGVILADLVGQVRKDVKVLANQLLKRLPEIEPLFIGVDVFNGAQASKTNARGIREAHRHLAEGGVLIVFPAGEVSTPQKETGQLSDIDWSQSVAKFIQRSQARCVPIYIHGRNSAWFYRAGKIHPLLRTAMLGRELLNKSASTISLCIGQPIPYAELKEFTKDEDVVNYLRLNTYLMSPHGQVESAKVSFTIPVIDPVPKAALIAELAQLDKQAKLLEQGEFTVYCVPSTHIPLMMQEIGRVREISFRAVGEGSGQACDVDAYDHHYWQLFVWNREQSELVGAYRMGLVDKIVAERGLQGLYSRSLFHYDHAFLATLENAIELGRSVVAEQYQRNLNSLLLLWKGIARFVELNPHYTHLFGPVSISNDYSPAARQLMAATLSIHHYDQHKAALVSPSTPLRAGTEVFWQKSLLSALASVSLLSKVVARMEQGNGLPVLLRQYLGMNGKLVCLNVDPAFNDALDGLIVVNLKQVPLKTLAKYMGKEAAQHYLCSVT | not soluble |
| MAHHHHHHMHNGVKTFHRVGFVGSKWKEVKNRGIARFIEAFAADTATALNVTPQAVHIADYAVADDIVVDFYVTHPGTDSAEVIDGKLEQFDYQRVWDLYGIPSEVDEQQRVVPCVMKCSNASRRTSPSSTCRLRMPDTNSVSQVDSFCPRCQRRLSSKQEFLQPDESSGWHPQPMHSHTSSISDAVRTALMEDSYSAIRKPSSTPPLPHLAHRYAPHQKWKGKLRSSRARIKRVVYHSCASHR | not soluble |
| SMGLPPGWDEYKTHNGKTYYYNHNTKTSTWTDPRMSS | soluble |
| MGSDKIHHHHHHMPKNRDAARASLENLYRIFTVPEAPDSTLGAIDQAIAGDVAGFLQTHIVAIERPLEEIEADFSSFSIPEEPTYVSEYTEFVKENLVAHSVHTASPAFVGHMTSALPYFMLPLARLMTALNQNVVKVETSKAFTPMERQVLAMLHHLVYGRNDDFYPQWIHNSQHALGAFCSGGTLANVTALWVARNRLFAPDGEFRGIAQEGLARALKHRGADGIAVLVSERGHYSLGKAADLLGIGRDDLIKIKTDANNRIDLKALREECRRLQDRNTLPLALVGIAGTTETGNVDPLEAMADLAQELGCHFHVDAAWGGPTLFSDRHRHLLRGIERADSVTIDGHKQLYVPMGAGMVVFKDPTALSAIEHHANYILRHGSKDLGSHTLEGSRPGKAMLVHAGFSIIGRKGYELLIDMGIERARTFADMIQRHPDFELISEPELNILTYRYCPPAIQQALTDATAQQRAAINGLLDQVCQLLQKYQREAGKTFVSRTRLHVARHDMELTVLRVVLANPLTTDEILEAVLAEQCEIVRLPEIQALLRQAEELCPGLAKAV | not soluble |
| MGSDKIHHHHHHMSIIMERQRGNQLLRIISEYMTNLKEKGQKLAKDNTMENLVNFTPRYNLIKSYLDDVERALDRSGLCYVKITFITLSKLLTGWSPIYFITEVPLAWDMILDTPYIAGSEIKGIVKNYFKEVTSNDKVESCLYGDEGKMGKVIFFNAYPIDGKNVLTYDIITPHYNGAKDEYNVKPIPIKFLAINKGITFKTYLAFDNKELNECGKDSLYLLLKTMIFSMRIGWGRKVTRGYGSLDIKEMDVKCHGE | not soluble |
| MFPFSPADVPTLSYFDEYRGRRVQCHFCFQEVDGSTLLNHFKDDLRVFRYPSNSCYGIAATGDALRAHLRRLHFYSRPPAVRGFDIEQRRIRSQLKFDEHEHDPDWDMEDVQQENRSKEAPVEAVNSQDATSPAEKVSKIKEDISTSSSRVDPMYSDEDSEDETSDADSSDDENRESEEEEDEY | not soluble |
| STKLLYLKPIQTGFPSDSDSRFVFSKLDSLSLRRQIPISISNSVLHSSLPAAKSLGLNVEVSESGMCSLNFRDEKTVTGAPELLCKTLYAWEAAISPHLAAERENATVEDSVVLQMIEKCLKEEMECGVKSEKSDLLCLVETAGGVASPGPSGTLQCDLYRPFRLPGILVGDGRLGGISGTIAAYESLKLRGYDIAAVVFEDHGLVNEVPLTSYLRNK | soluble |
| DYQIQISISDISEDRTEHQFTSNPEVKTPVGFEQHVESIPEMEDFGLSAAELMDESVPSDFQLDIGLVDDFLEIPSHETEVPQPKVASMQPDTNAKSQKPTVHRGELEAFIYGMGIDPNMVPSQNREQWFEQLGQSFSLMLIGLMETLHNRAVFKQTNRVNHTAFRKSENNPLKFSANLEDAIHNLYNRQTSSFLKPNAAIKEAFNDIENHEQALMQGVAGTVSSVMSLVEPNTIYSDALAKDNVINKVIPARKYAQSWKRFEGIHSQLTDELVNKESPFYLEDFAKHYELALKNKG | not soluble |
| TDSTGIDLHEFLVNTLKKNPRDRMMLLKLEQEILEFINDNNNQFKKFPQMTSYHRMLLHRVAAYFGMDHNVDQTGKAVIINKTSNTRIPEQRFSEHIKDEKNTEFQQRFIL | soluble |
| MRANIWQILSVSVLFFFGTAIGQAQSRNRTYEAYVKQYADEAIRQMSRYNIPASITIAQALVETGAGASTLASVHNNHFGIKCHKSWTGKRTYRTDDAPNECFRSYSAARESYEDHSRFLLQPRYRPLFKLDREDYRGWATGLQRCGYATNRGYANLLIKMVELYELYALDREKYPSWFHKSYPGSNKKSHQTTKQKQSGLKHEAYFSYGLLYIIAKQGDTFDSLAEEFDMRASKLAKYNDAPVDFPIEKGDVIYLEKKHACSISKHTQHVVRVGDSMHSISQRYGIRMKNLYKLNDKDGEYIPQEGDILRLR | not soluble |
| MGSDKIHHHHHHMKKGFSALVEHNGYRVLVDTGTDGKILLNNMEGLGIDPNSIDALFLTHGHYDHTGGIAELLKARKDTLDVYAHPRIFEKRIALKPKRRDIGIPFSQEELESLGAIFHLNDKALEFLPGLISSGEIKRETWDRAVGYLLNNEKDPVRDDMALLIDLGDKIAVITGCGHSGILNIAKHAVEISKKPIRALIGGFHLRGASITILEDAVRGLKELNVEMLYPGHCTGIDEYAYLRMKLKAEHLNVGKEIVIK | not soluble |
| MKHTEESLMSTTEKSRKAEEDDEKDMKKRTQFPSSSTSSDPPVGIGGSGALVVNRRRQEGNPVLKYVRNVRYEWGDIGPDFECGPTFGVVYLSFKYHKQHPEYVYTRINGNAENRYRNKVLLGYCNMEEPRHVLRELNMICFREAWTFVVVYTVEEAAEYIELFKTTQKKEITIKKKAIDDGGDSSMSDERRRNREAAIGFLTAARSITKTDADRLLFHFGTLQAISTASETSISACPGVGPIKAKNLHSFLHAIISPNEQD | not soluble |
| MAYEISKKVLHIVGKTNATYKLIEEGDKILLGLSGGKDSIMLACILARMQKHAPFKFDFKAVTVHYGLGEDLKWLSDLCQEQGIEHEIIYTQIAATINEKRREKSSFCSFCSRLRRGTLYSKALEEGYNKVAIAHHLDDAVESFFMNFTYNGSLRSMPPIYRAENGLLVIRPLIKVREASSIHFVTSQNIPVAPDCNCPAKQPTSDKPPIARLATKNFLKEMQNLHPRFFDSLENAFNNVQANSFSDAKYLDALEHHHHHH | soluble |
| MSDISEKFWDASIEELKKGYVFDEEKEEYICLACGETFIKGVIYQDNQILYEAEKFVQLHIQNEHTSMFDYLLNMDKKFTGLTDLQKKMVQFFHMGLNDKEIVKEMDGGSTSTIRNHRFTLREKMKQAKVFLALMELSEEKSKVQTKFVPIHRTATMVDDRYNITEEENDEVLKAHFTEGLDGPLSKFPKKQKRKLIILRHLVKKFDSNKKYTEKEVNTVIENVYPDFVTLRRYLIEYGFLDRTADGSQYWVKL | not soluble |
| MADGPDKKRRKLTSALKDAIGAHSQKPEENIEKPIALALISDNKAAQDLLNKIQASRRPQAILEATLKICKEKKSEAHVDEAFLSIFRKHFSILGVDSALACWKLIEEHLNSSESINEIRIANEFISTSNLLGHGFGKLLQNMKQGIPVVIQNTWRQERKADALALAYPFLSLLLADQVYGDHQNLESLAEFWKNQVLPEKSMKKDFGMRMVSALAGGEPGQLPETKIDENQLEMLSKIYENHLEFYTGILSESTCSQLLAKVIEDNLAKNELKQLARRCQTAEVCMSPCIYYAMISVLRSTFDLNDSELIFIENLKTLKLKEITKHLPSIINSCSNTRQITASKKLKNLENLQDFLHNVTEKPENDNFSAAFALLSINISLIFDNWNFCEKILKTLPKDVLEKLIKAGKGSENENILKVFKKVAQEAAPVKFVNRTAADVAEKLREPEFAVAEALSLLQGVHTAETKKEVFDSVVKFVEEIPGAESIDEMKLFKLIIEMYGGSQLESLAVQVVFSRIAADGWTEMDRAPGTEKSDESWFTVLVETIDLLDIAMKSAKNSVLKSFTALFCQLFSQVLKNSQKFVRNSLNAVASRTLSPEMETEFVLRRHKLSQDLARLVDAMKRNESYFAMLTASIIGDAVFYGSDSLLAMSKLHSLADKNASALLATNLPVVERTRYKKFLSTITRASKRIY | not soluble |
| MKEVKKEYLTLDEVKILAQTPCEHDVLKRASLFSCLTGLRISDILNLRWEDFTLAPDQGYCIRIRTQKTSTEATLPISYEAYELCGEPSSGKVFKGLQRSMINYPLKKWIKQAGIMKHITFHCFRHSYAVIQISLGTDIYTVSKMLTHKNVSTTQIYADLEHHHHHH | not soluble |
| MEKATKRNDEECEVQLNIKRNSKHSAWTGELFKIECPVKYCVHRPNVTWCKHNGTIWVPLEVGPQLYTSWEENRSVPVFVLHFKPIHLSDNGSYSCSTNFNSQVINSHSVTIHVRERSQNSS | soluble |
| MDNVVDRHVFYISDGTAITAEVLGHAVMSQFPVTISSITLPFVENESRARAVKDQIDAIYQQTGVRPLVFYSIVLPEIRAIILQSEGFCQDIVQALVAPLQQEMKLDPTPIAHRTHGLNPGNLNKYDARIAAIDYTLAHDDGISLRNLDQAQVILLGVSRCGKTPTSLYLAMQFGIRAANYPFIADDMDNLTLPTSLKPLQHKLFGLTIDPERLAAIREERRENSRYASLRQCRMEVAEVEALYRKNQIPCLNSTNYSVEEIATKILDIMGLNRRMYLEHHHHHH | soluble |
